Measured values published in patent US20050250700A1.
Bridge positions count the residues as written; N and C are the ends. Side chains are listed from the residue outwards. * marks the point of attachment. Biotin = O=C1N[C@H]2[C@H](CS[C@H]2CCCCC(=O)*)N1; AEEA = NCCOCCOCC(=O)O

Experiments:
[1] = biological target: KDR (VEGFR-2), full-length receptor on cells (human), P35968; assay: competitor 125I-VEGF (300 pM) on KDR-transfected 293H cells; peptide 0.3 µM; conditions: remark: other sources report otherwise
[2] = biological target: KDR (VEGFR-2), full-length receptor on cells (human), P35968; assay: competitor 125I-VEGF (300 pM) on KDR-transfected 293H cells; peptide 30 µM; conditions: remark: other sources report otherwise

Sequence of KDR (VEGFR-2), full-length receptor on cells (human), P35968 (P35968 20-1356): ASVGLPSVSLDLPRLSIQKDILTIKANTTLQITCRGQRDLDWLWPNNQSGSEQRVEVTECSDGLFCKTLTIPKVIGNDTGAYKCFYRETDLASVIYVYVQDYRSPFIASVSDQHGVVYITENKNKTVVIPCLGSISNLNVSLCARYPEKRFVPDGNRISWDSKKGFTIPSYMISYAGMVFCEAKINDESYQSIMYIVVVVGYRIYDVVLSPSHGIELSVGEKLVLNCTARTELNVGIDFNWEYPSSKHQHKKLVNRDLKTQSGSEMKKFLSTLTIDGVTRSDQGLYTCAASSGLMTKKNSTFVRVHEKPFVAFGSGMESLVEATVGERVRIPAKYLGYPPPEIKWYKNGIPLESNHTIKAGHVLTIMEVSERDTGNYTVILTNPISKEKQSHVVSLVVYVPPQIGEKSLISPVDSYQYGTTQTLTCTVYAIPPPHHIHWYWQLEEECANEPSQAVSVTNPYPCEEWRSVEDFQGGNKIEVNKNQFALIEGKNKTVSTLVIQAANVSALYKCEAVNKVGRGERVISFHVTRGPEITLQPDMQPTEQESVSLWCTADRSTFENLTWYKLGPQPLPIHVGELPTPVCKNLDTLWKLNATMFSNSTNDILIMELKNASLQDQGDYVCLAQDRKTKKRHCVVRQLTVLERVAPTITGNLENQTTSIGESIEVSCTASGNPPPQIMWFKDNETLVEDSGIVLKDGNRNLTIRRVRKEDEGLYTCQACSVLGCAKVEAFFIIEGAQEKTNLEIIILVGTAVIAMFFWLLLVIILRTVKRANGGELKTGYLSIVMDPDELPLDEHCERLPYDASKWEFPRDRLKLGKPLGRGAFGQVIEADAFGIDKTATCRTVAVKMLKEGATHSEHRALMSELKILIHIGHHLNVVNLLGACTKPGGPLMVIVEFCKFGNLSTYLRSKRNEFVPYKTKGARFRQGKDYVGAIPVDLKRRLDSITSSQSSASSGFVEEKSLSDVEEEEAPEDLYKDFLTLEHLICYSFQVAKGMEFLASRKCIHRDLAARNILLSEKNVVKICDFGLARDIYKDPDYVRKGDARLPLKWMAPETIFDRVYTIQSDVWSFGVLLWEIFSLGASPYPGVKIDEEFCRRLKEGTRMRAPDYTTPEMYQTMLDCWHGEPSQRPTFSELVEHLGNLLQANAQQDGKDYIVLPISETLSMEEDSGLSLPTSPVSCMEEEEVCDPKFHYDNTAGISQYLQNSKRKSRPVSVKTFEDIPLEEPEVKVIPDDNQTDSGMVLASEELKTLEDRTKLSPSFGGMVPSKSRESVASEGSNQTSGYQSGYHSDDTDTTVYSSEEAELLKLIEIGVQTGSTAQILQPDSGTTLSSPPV

- % inhibition of 125I-labeled VEGF binding [1]: 24.4%
- % inhibition of 125I-labeled VEGF binding [2]: 48%
B1: biotinylated SEQ ID NO:264 with a JJ spacer (peptide)
peptide: Ac-AGPKWCEEDWYYCMITGTGGGK([AEEA-AEEA-Biotin])-NH2
modifications: disulfide 6-13 (inferred)
